Reference: IntAct's records for PubMed 9389648

B1: Mothers against decapentaplegic homolog 2 (Homo sapiens), Q15796 (parent)
chain: MSSILPFTPPVVKRLLGWKKSAGGSGGAGGGEQNGQEEKWCEKAVKSLVKKLKKTGRLDELEKAITTQNCNTKCVTIPSTCSEIWGLSTPNTIDQWDTTGLYSFSEQTRSLDGRLQVSHRKGLPHVIYCRLWRWPDLHSHHELKAIENCEYAFNLKKDEVCVNPYHYQRVETPVLPPVLVPRHTEILTELPPLDDYTHSIPENTNFPAGIEPQSNYIPETPPPGYISEDGETSDQQLNQSMDTGSPAELSPTTLSPVNHSLDLQPVTYSEPAFWCSIAYYELNQRVGETFHASQPSLTVDGFTDPSNSERFCLGLLSNVNRNATVEMTRRHIGRGVRLYYIGGEVFAECLSDSAIFVQSPNCNQRYGWHPATVCKIPPGCNLKIFNNQEFAALLAQSVNQGFEAVYQLTRMCTIRMSFVKGWGAEYRRQTVTSTPCWIELHLNGPLQWLDKVLTQMGSPSVRCSSMS
partner: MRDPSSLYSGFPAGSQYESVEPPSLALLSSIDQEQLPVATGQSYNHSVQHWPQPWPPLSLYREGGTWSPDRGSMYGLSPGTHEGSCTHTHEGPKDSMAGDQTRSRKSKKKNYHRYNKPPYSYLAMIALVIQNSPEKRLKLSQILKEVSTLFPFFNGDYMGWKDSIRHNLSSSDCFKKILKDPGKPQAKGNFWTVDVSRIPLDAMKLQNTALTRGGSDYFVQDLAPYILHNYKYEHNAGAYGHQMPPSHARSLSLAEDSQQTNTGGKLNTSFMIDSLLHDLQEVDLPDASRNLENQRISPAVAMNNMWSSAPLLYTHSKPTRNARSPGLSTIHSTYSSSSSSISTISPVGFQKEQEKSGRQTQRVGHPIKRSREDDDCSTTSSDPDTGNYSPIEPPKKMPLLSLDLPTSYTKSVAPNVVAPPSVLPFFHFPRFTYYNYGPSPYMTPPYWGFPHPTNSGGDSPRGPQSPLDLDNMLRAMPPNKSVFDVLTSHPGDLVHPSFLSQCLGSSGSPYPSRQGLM

Variants of: B1
Conditions: with foxh1_xenla foxh1, P70056

Row | Variant | effect of a mutation on the interaction
1 | D450E | disrupting interaction
2 | S464A;S465A;S467A | disrupting interaction
